{"source": "patent US20040038304A1", "about": "(CATALENT PHARMA SOLUTIONS, published 2004)", "binders": {"B1": {"name": "MN14 antibody (antibody, V domains shown)", "VH": "EVQLVESGGGVVQPGRSLRLSCSASGFDFTTYWMSWVRQAPGKGLEWIGEIHPDSSTINYAPSLKDRFTISRDNAKNTLFLQMDSLRPEDTGVYFCASLYFGFPWFAYWGQGTPVTVSS", "VL": "DIQLTQSPSSLSASVGDRVTITCKASQDVGTSVAWYQQKPGKAPKLLIYWTSTRHTGVPSRFSGSGSGTDFTFTISSLQPEDIATYYCQQYSLYRSFGQGTKVEIKR", "notes": "Purified MN14 used as the standard of the assays; also called Purified MN14"}}, "target": "T1, CEA antigen (UniProt P06731 35-685, limits assumed)", "T1 sequence (looked up)": "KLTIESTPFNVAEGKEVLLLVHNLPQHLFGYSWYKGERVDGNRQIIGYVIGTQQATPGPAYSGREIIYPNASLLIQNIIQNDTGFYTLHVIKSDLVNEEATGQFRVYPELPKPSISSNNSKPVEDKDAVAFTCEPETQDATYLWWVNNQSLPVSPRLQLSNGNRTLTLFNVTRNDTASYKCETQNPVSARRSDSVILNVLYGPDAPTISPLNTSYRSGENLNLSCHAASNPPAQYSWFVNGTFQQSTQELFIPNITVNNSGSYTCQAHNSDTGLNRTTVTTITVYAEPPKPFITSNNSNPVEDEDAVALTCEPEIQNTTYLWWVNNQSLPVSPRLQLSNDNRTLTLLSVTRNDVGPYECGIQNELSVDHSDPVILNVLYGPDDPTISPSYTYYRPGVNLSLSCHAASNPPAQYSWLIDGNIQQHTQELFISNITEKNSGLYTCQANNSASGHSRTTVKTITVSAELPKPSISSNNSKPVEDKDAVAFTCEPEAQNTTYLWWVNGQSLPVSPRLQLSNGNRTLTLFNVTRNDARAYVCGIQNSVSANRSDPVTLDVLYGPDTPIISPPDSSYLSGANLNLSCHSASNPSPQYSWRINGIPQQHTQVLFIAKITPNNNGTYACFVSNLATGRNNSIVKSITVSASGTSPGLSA", "assay": "ELISA, plates coated with CEA antigen; MN14 as the standard", "protocol": "Single colonies were made and from an initial 50 clones, 38 viable clones were obtained. The supernatants of these clones were analyzed for human kappa light chain, human Fc (IgG) and CEA antigen binding. For the huLC and huFc assay, the plates were coated with anti-huFab, for the CEA binding assay, the plates were coated with CEA antigen. All values are in ng/ml. Purified MN14 was used as a standard."}
{"binder": "B1", "values": [{"measurement": "binding result", "result": "binds"}]}
